T1: CCL8_HUMAN (human, UniProt P80075 24-99)
T1 construct: Biotinylated (detected with streptavidin-Alexa647) in yeast display; AlexaFluor 647 labelled (Almac) in thermophoresis
T1 sequence: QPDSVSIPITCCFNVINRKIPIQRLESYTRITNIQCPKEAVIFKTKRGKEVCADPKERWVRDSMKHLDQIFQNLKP

T2: CCL5_HUMAN (human, UniProt P13501 24-91)
T2 construct: Biotinylated (detected with streptavidin-Alexa647) in yeast display; AlexaFluor 647 labelled (Almac) in thermophoresis
T2 sequence: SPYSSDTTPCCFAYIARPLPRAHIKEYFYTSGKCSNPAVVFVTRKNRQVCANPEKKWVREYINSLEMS

T3: CCL25_HUMAN (human, UniProt O15444 24-150)
T3 construct: Biotinylated (detected with streptavidin-Alexa647) in yeast display; AlexaFluor 647 labelled (Almac) in thermophoresis
T3 sequence: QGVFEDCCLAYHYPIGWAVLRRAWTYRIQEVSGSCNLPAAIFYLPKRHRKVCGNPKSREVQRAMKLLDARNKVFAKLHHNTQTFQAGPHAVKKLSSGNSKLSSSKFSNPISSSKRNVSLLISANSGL

T4: CXCL8_HUMAN (human, UniProt P10145 28-99)
T4 construct: Biotinylated (detected with streptavidin-Alexa647) in yeast display; AlexaFluor 647 labelled (Almac) in thermophoresis
T4 sequence: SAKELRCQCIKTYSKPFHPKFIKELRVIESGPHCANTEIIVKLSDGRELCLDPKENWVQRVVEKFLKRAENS

T5: CCL17_HUMAN (human, UniProt Q92583 24-94)
T5 construct: Biotinylated (detected with streptavidin-Alexa647) in yeast display; AlexaFluor 647 labelled (Almac) in thermophoresis
T5 sequence: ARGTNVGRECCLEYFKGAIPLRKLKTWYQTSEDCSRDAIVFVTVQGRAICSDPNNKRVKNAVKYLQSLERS

T6: CXCL10_HUMAN (human, UniProt P02778 22-98)
T6 construct: Biotinylated (detected with streptavidin-Alexa647) in yeast display; AlexaFluor 647 labelled (Almac) in thermophoresis
T6 sequence: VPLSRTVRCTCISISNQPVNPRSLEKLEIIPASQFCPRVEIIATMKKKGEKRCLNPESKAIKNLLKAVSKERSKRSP

T7: P546_AMBCA (Amblyomma cajennense, UniProt A0A023FBW7 22-118)
T7 construct: Tick evasin; also called Evasin
T7 sequence: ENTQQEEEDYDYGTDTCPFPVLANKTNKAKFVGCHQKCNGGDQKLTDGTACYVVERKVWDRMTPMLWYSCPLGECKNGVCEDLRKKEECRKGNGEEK

T8: P467_RHIPU (Rhipicephalus pulchellus, UniProt L7M8Z8 22-127)
T8 construct: Tick evasin; also called Evasin
T8 sequence: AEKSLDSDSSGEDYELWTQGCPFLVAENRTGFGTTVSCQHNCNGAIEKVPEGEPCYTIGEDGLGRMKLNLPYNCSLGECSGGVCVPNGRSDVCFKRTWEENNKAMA

T9: P1182_AMBMA (Amblyomma maculatum, UniProt G3MJ83 27-115)
T9 construct: Tick evasin; also called Evasin
T9 sequence: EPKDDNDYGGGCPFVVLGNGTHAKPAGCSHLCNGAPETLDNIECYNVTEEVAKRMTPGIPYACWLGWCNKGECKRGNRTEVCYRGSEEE

T10: P1243_AMBAM (Amblyomma americanum, UniProt A0A0C9S461 26-123)
T10 construct: Tick evasin; also called Evasin
T10 sequence: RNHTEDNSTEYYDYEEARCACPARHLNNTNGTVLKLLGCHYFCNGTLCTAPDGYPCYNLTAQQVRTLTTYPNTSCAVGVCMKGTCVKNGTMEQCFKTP

T11: CCL3_HUMAN (human, UniProt P10147 24-92)
T11 construct: Biotinylated (detected with streptavidin-Alexa647) in yeast display; AlexaFluor 647 labelled (Almac) in thermophoresis
T11 sequence: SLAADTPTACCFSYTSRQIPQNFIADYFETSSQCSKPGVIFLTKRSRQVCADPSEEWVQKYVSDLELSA

T12: P991_AMBCA (Amblyomma cajennense, UniProt A0A023FFD0 29-136)
T12 construct: Tick evasin; also called Evasin
T12 sequence: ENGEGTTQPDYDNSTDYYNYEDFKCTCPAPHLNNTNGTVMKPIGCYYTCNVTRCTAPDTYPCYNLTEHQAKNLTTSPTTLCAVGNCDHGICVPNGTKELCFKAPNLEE

B1: P698_RHISA (other)
chain: NEDDSSDYYDASPMNCSSMSVNSTMGWLSMNCTMSCNGTTFPLSNSTHCFHSYTNLTVQSRMETMTYNCSVGTCSNGTCVENGTTTTCW
notes: Tick evasin; also called Evasin
B2: P943_IXORI (other)
chain: RSKQPTASQSSKNSIKAEFCDTNCTQGTNGAWSGCSEGCFCVHVGNNTKGRCMKLSSDYDYTTQ
notes: as for B1
B3: P1220_IXORI (other)
chain: GSTPSAMKTEDILKVLGSTSSLENHTDSSHCRYQELLDITKNIENAGFLAINCQRSCPNGKQTMVEGYGCIFKIKHATKRGKVKVKEGSCRKGACVRGSTRPPWRLLVLLGESKEEEFL
notes: as for B1
B4: P1146_IXORI (other)
chain: GPDTKGDEESDENELFTVEYCGTNCTQLENGSWTPCSGNNGNCRCFHESDKTVGLCLSTEYTDFSEYPDPNSSEIIAAAPLPRERLIQ
notes: as for B1
B5: P1011_AMBTR (other)
chain: EKDTPKNIPGCEDAGTTAAPPADNPKHYAVYTDKNGCTFKVIGTWMTKEDHRRLPVSLRRVRASSGRVKLPASCQKICKHSVKKFPEGTPCRLVTRDPIKGKNHIKNGCIRGYCSSGVCVSDNRSISCYVLPNNTELTSPSGSFAE
notes: as for B1
B6: P1063_AMBTR (other)
chain: QSEVGKNVPGCGDTETLEAPPQEKPPYYEYKDEEGCTQKVLESWFQAGERSTGRGQKKRGHGRRPSRVLRTVDCRKNCTVGITALPDGHLCLVPRGDPFTRGGAIKYGCYLGDCASGHCQHRYETVSCRLPAPDTTAKPYYVTPEK
notes: as for B1
B7: P1283_IXORI (other)
chain: KEPEDTTLPPGALVDSPDSDNCSSPHLPYFDETTNMWMGFLAVNCTKKCPVGKHVTVVDGNKCIGTWSFLDELTITVLVGSCKDGFCETDGSSECRNITLAEEDSQEEEGAAAEEEDEEDEEDEEEEEAEEEREDDHDDA
notes: as for B1
B8: P1219_IXORI (other)
chain: ASLAKETEDTTLPARALVDSPDSDNCSSPQLPYFDELTYMPLGFLAVNCTKTCPVGKNGTVVNGNKCIVTWSILDVSTITVLVGSCKNGYCISDGSSECRNITLAGEDSQEEEEEAEEDEEEDDGDEEEDEEEDEEENDDD
notes: as for B1
B9: CCL1_HUMAN (ligand)
chain: KSMQVPFSRCCFSFAEQEIPLRAILCYRNTSSICSNEGLIFKLKRGKEACALDTVGWVQRHRKMLRHCPSKRK
notes: Biotinylated (detected with streptavidin-Alexa647) in yeast display; AlexaFluor 647 labelled (Almac) in thermophoresis
B10: CCL22_HUMAN (ligand)
chain: GPYGANMEDSVCCRDYVRYRLPLRVVKHFYWTSDSCPRPGVVLLTFRDKEICADPRVPWVKMILNKLSQ
notes: as for B9
B11: CCL11_HUMAN (ligand)
chain: not shown
notes: as for B9
B12: CXCL11_HUMAN (ligand)
chain: FPMFKRGRCLCIGPGVKAVKVADIEKASIMYPSNNCDKIEVIITLKENKGQRCLNPKSKQARLIIKKVERKNF
notes: as for B9
B13: CCL18_HUMAN (ligand)
chain: AQVGTNKELCCLVYTSWQIPQKFIVDYSETSPQCPKPGVILLTKRGRQICADPNKKWVQKYISDLKLNA
notes: as for B9
B14: P1005_AMBMA (other)
chain: EKDTPKNIPGCGDTGTTAAPPADNPKHFAVYTDKHGCTIKVIGTWMTKEDHSRLPVSLRRVRASSGRVMLPASCQKICNDTVKNFPEGTPCRLVTGDPIKGKNHIKDGCIRGYCSSGVCVSDKRNISCYVPPN
notes: as for B1
B15: CCL19_HUMAN (ligand)
chain: GTNDAEDCCLSVTQKPIPGYIVRNFHYLLIKDGCRVPAVVFTTLRGRQLCAPPDQPWVERIIQRLQRTSAKMKRRSS
notes: as for B9
B16: P1030_AMBPA (other)
chain: GPPSIPGNESIPGCGDAGTTTAPEDNPKHYGTLTDKKGCTLPIIGTWMTAVDHQHLQGTRGERRGPTGKVNLPASCRKNCHGRQEILRDGIPCRKVVGNPKGSKKHLKSGCLRGKCLAGQCVNDGRRISCYVPRNITDTEPTPGLLAE
notes: Tick evasin

Legend:
CCL8_HUMAN = target: T1, CCL8_HUMAN; assay: yeast surface display FACS re-test, >3 fold MFI over control (col D);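 further: yeast displaying putative tick Evasins stained with biotinylated human chemokine plus streptavidin-Alexa647, flow cytometry, positive when MFI exceeds 3-fold the empty-vector or no-chemokine background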
CCL5_HUMAN [1] = target: T2, CCL5_HUMAN; assay: yeast surface display library FACS screen, labelled chemokine (col C: isolated in)
CCL25_HUMAN [2] = target: T3, CCL25_HUMAN; assay: as above
CXCL8_HUMAN [3] = target: T4, CXCL8_HUMAN; assay: as above
CCL25_HUMAN [4] = target: T3, CCL25_HUMAN; assay: yeast surface display FACS re-test, >3 fold MFI over control (col D);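 further: yeast displaying putative tick Evasins stained with biotinylated human chemokine plus streptavidin-Alexa647, flow cytometry, positive when MFI exceeds 3-fold the empty-vector or no-chemokine background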
CCL5_HUMAN [5] = target: T2, CCL5_HUMAN; assay: as above
CCL18_HUMAN = target: B13; assay: as above
CCL17_HUMAN [6] = target: T5, CCL17_HUMAN; assay: as above
CCL11_HUMAN = target: B11; assay: yeast surface display library FACS screen, labelled chemokine (col C: isolated in)
CXCL10_HUMAN = target: T6, CXCL10_HUMAN; assay: as above
CCL19_HUMAN [7] = target: B15; assay: as above
P546_AMBCA = target: T7, P546_AMBCA; assay: microscale thermophoresis, AlexaFluor 647 labelled chemokine
P467_RHIPU = target: T8, P467_RHIPU; assay: yeast surface display library FACS screen, labelled chemokine (col C: isolated in)
P1182_AMBMA = target: T9, P1182_AMBMA; assay: as above
P1243_AMBAM [8] = target: T10, P1243_AMBAM; assay: as above
CCL3_HUMAN = target: T11, CCL3_HUMAN; assay: yeast surface display FACS re-test, >3 fold MFI over control (col D);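 further: yeast displaying putative tick Evasins stained with biotinylated human chemokine plus streptavidin-Alexa647, flow cytometry, positive when MFI exceeds 3-fold the empty-vector or no-chemokine background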
CCL19_HUMAN [9] = target: B15; assay: as above
CXCL8_HUMAN [10] = target: T4, CXCL8_HUMAN; assay: as above
CCL1_HUMAN = target: B9; assay: yeast surface display library FACS screen, labelled chemokine (col C: isolated in)
P1243_AMBAM [11] = target: T10, P1243_AMBAM; assay: yeast surface display FACS re-test, >3 fold MFI over control (col D);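 further: yeast displaying putative tick Evasins stained with biotinylated human chemokine plus streptavidin-Alexa647, flow cytometry, positive when MFI exceeds 3-fold the empty-vector or no-chemokine background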
P991_AMBCA = target: T12, P991_AMBCA; assay: yeast surface display library FACS screen, labelled chemokine (col C: isolated in)
CCL20_HUMAN = target: T13, CCL20_HUMAN (human, UniProt P78556 27-96); assay: yeast surface display FACS re-test, >3 fold MFI over control (col D)
T13 construct: Biotinylated (detected with streptavidin-Alexa647) in yeast display; AlexaFluor 647 labelled (Almac) in thermophoresis

CCL17_HUMAN [12] = target: T5, CCL17_HUMAN; assay: yeast surface display library FACS screen, labelled chemokine (col C: isolated in)

Chain of CCL11_HUMAN (P51671 24-97 limits assumed): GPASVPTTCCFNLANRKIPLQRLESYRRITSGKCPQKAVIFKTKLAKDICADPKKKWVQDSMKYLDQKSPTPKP
T13 sequence (P78556 27-96 limits assumed): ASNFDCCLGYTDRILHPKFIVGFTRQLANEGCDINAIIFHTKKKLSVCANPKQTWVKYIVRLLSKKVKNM

B1
binding result (CCL8_HUMAN): binds

B2
binding result (CCL5_HUMAN [1]): binds

B3
binding result (CCL25_HUMAN [2]): binds

B4
binding result (CXCL8_HUMAN [3]): binds

B5
binding result (CCL25_HUMAN [4]): binds
binding result (CCL5_HUMAN [5]): binds
binding result (CCL18_HUMAN): binds
binding result (CCL17_HUMAN [6]): binds
binding result (CCL11_HUMAN): binds

B6
binding result (CCL5_HUMAN [1]): binds

B7
binding result (CXCL10_HUMAN): binds

B8
binding result (CXCL10_HUMAN): binds
binding result (CCL19_HUMAN [7]): binds

B9
Kd (P546_AMBCA): 149 nM
binding result (P467_RHIPU): binds

B10
Kd (P546_AMBCA): 175 nM

B11
Kd (P546_AMBCA): 500 nM

B12
binding result (P546_AMBCA): no binding

B13
Kd (P546_AMBCA): 86 nM
binding result (P1182_AMBMA): binds
binding result (P1243_AMBAM [8]): binds

B14
binding result (CCL3_HUMAN): binds
binding result (CCL5_HUMAN [5]): binds
binding result (CCL19_HUMAN [9]): binds
binding result (CCL17_HUMAN [6]): binds
binding result (CXCL8_HUMAN [10]): binds
binding result (CCL11_HUMAN): binds
binding result (CCL25_HUMAN [2]): binds
binding result (CCL1_HUMAN): binds

B15
binding result (P1243_AMBAM [11]): binds
binding result (P991_AMBCA): binds

B16
binding result (CCL3_HUMAN): binds
binding result (CCL8_HUMAN): binds
binding result (CCL5_HUMAN [5]): binds
binding result (CCL20_HUMAN): binds
binding result (CCL18_HUMAN): binds
binding result (CXCL8_HUMAN [10]): binds
binding result (CCL11_HUMAN): binds
binding result (CCL17_HUMAN [12]): binds

From patent publication US20220175942A1 (OXFORD UNIVERSITY INNOVATION, published 2022)
